T1: APBA2_1, Q99767
T1 sequence (Q99767 563-664, limits assumed, looked up): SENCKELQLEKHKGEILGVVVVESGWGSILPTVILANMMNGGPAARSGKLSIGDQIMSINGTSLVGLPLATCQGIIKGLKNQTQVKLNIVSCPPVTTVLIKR

T2: APBA3_1, O96018
T2 sequence (O96018 389-490, limits assumed, looked up): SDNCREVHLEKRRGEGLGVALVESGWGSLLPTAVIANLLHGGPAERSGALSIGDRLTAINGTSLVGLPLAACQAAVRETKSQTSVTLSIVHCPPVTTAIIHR

T3: ARHGEF11, O15085
T3 sequence (O15085 42-136, limits assumed, looked up): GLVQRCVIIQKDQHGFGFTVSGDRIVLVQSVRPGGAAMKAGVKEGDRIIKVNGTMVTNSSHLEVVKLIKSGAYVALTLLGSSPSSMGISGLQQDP

T4: CARD11, Q9BXL7
T4 sequence (Q9BXL7 662-765, limits assumed, looked up): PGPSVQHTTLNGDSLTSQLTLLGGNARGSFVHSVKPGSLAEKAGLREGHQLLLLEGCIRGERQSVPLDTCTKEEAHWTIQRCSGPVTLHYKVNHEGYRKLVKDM

T5: FRMPD1, Q5SYB0
T5 sequence (Q5SYB0 52-145, limits assumed, looked up): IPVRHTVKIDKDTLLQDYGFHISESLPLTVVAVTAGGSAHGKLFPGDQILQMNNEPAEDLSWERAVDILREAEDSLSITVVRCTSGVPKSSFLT

T6: HTRA3, P83110
T6 sequence (P83110 354-453, limits assumed, looked up): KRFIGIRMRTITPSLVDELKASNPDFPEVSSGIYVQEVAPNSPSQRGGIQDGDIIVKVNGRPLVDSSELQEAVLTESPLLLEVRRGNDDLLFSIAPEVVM

T7: MPP6, Q9NZW5
T7 sequence (Q9NZW5 125-219, limits assumed, looked up): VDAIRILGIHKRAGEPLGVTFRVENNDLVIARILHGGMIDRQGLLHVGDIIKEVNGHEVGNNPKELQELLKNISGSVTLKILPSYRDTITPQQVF

T8: MPP7, Q5T2T1
T8 sequence (Q5T2T1 134-230, limits assumed, looked up): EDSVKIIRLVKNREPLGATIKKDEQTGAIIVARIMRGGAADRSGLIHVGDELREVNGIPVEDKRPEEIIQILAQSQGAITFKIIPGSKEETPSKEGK

T9: NHERF3_4, Q5T2W1
T9 sequence (Q5T2W1 373-468, limits assumed, looked up): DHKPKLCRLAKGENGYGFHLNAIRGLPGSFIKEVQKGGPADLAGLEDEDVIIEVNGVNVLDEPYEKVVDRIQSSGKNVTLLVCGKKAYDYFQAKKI

T10: PDZD7_3, Q9H5P4
T10 sequence (Q9H5P4 857-944, limits assumed, looked up): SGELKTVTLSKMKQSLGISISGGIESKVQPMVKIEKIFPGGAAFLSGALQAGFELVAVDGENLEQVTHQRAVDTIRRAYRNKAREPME

T11: RHPN1, Q8TCX5
T11 sequence (Q8TCX5 508-602, limits assumed, looked up): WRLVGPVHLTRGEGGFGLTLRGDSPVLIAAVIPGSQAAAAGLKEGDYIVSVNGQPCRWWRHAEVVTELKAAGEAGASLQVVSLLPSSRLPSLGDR

T12: SNTA1, Q13424
T12 sequence (Q13424 82-180, limits assumed, looked up): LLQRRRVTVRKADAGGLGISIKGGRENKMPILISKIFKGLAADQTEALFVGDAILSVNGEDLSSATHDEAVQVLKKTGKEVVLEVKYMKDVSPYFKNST

T13: SNTG1, Q9NSN8
T13 sequence (Q9NSN8 52-150, limits assumed, looked up): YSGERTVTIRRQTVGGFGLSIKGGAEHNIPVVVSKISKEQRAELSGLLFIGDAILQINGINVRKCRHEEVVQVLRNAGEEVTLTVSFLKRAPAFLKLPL

T14: TJP3_3, O95049
T14 sequence (O95049 375-456, limits assumed, looked up): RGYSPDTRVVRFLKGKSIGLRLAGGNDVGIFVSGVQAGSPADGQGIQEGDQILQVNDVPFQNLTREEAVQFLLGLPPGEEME

T15: TX1BP3, O14907
T15 sequence (O14907 10-122, limits assumed, looked up): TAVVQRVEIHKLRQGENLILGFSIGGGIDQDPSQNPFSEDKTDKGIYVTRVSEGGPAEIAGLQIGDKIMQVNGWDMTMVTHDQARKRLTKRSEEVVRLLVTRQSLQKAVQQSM


The binders below were run against T1, APBA2_1, Q99767 (assay: holdup assay). Details: plain residues with an end cap or a label only (N-terminal biotin on a linker: ado-ado).
Set-up: key: below the threshold = too weak to quantify, mostly under pKd 3.1 to 4
TNSRHGETTV [FZD2, Q14332] was tested, and the pKd was “below the threshold”.
For ARESQKVSHV [FAM110B, Q8TC76], the pKd was “below the threshold”.

Each binder was assayed against T2, APBA3_1, O96018 (assay: holdup assay). Details: plain residues with an end cap or a label only (N-terminal biotin on a linker: ado-ado).
Set-up: key: below the threshold = too weak to quantify, mostly under pKd 3.1 to 4
With TNSRHGETTV [FZD2, Q14332] the pKd was “below the threshold”.
For ARESQKVSHV [FAM110B, Q8TC76], the pKd was “below the threshold”.

What follows are binders tested against T3, ARHGEF11, O15085 (assay: holdup assay). Details: plain residues with an end cap or a label only (N-terminal biotin on a linker: ado-ado).
Set-up: key: below the threshold = too weak to quantify, mostly under pKd 3.1 to 4
With TNSRHGETTV [FZD2, Q14332] the pKd was 4.07.
ARESQKVSHV [FAM110B, Q8TC76] gave a pKd of 4.19.

The binders below were run against T4, CARD11, Q9BXL7 (assay: holdup assay). Details: plain residues with an end cap or a label only (N-terminal biotin on a linker: ado-ado).
Set-up: key: below the threshold = too weak to quantify, mostly under pKd 3.1 to 4
In the case of TNSRHGETTV [FZD2, Q14332], the pKd is reported as “below the threshold”.
With ARESQKVSHV [FAM110B, Q8TC76] the pKd was “below the threshold”.

These binders were tested against CASK, O14936 (assay: holdup assay). Details: plain residues with an end cap or a label only (N-terminal biotin on a linker: ado-ado).
Sequence of CASK, O14936 (O14936 487-570): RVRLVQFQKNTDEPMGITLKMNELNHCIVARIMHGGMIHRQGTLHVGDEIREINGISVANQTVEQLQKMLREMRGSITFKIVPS
Set-up: key: below the threshold = too weak to quantify, mostly under pKd 3.1 to 4
With TNSRHGETTV [FZD2, Q14332] the pKd was “below the threshold”.
ARESQKVSHV [FAM110B, Q8TC76] was tested, and the pKd was “below the threshold”.

Each binder was assayed against T5, FRMPD1, Q5SYB0 (assay: holdup assay). Details: plain residues with an end cap or a label only (N-terminal biotin on a linker: ado-ado).
Set-up: key: below the threshold = too weak to quantify, mostly under pKd 3.1 to 4
For TNSRHGETTV [FZD2, Q14332], the pKd was “below the threshold”.
For ARESQKVSHV [FAM110B, Q8TC76], the pKd was “below the threshold”.

Each binder was assayed against FRMPD2_1, Q68DX3 (assay: holdup assay). Details: plain residues with an end cap or a label only (N-terminal biotin on a linker: ado-ado).
Sequence of FRMPD2_1, Q68DX3 (Q68DX3 770-861): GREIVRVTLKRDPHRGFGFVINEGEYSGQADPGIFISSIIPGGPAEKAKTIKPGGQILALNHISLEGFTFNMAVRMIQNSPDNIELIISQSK
Set-up: key: below the threshold = too weak to quantify, mostly under pKd 3.1 to 4
TNSRHGETTV [FZD2, Q14332] gave a pKd of 3.6.
ARESQKVSHV [FAM110B, Q8TC76] was tested, and the pKd was “below the threshold”.

The binders below were run against GRIP2_4, Q9C0E4 (assay: holdup assay). Details: plain residues with an end cap or a label only (N-terminal biotin on a linker: ado-ado).
Sequence of GRIP2_4, Q9C0E4 (Q9C0E4 446-548): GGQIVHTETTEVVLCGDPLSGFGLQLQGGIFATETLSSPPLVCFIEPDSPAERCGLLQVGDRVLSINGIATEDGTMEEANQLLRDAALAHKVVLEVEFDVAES
Set-up: key: below the threshold = too weak to quantify, mostly under pKd 3.1 to 4
For TNSRHGETTV [FZD2, Q14332], the pKd was “below the threshold”.
In the case of ARESQKVSHV [FAM110B, Q8TC76], the pKd is reported as “below the threshold”.

The binders below were run against GRIP2_7, Q9C0E4 (assay: holdup assay). Details: plain residues with an end cap or a label only (N-terminal biotin on a linker: ado-ado).
Sequence of GRIP2_7, Q9C0E4 (Q9C0E4 934-1023): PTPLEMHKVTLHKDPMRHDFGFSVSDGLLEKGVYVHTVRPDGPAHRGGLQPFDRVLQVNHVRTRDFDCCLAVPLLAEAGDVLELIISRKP
Set-up: key: below the threshold = too weak to quantify, mostly under pKd 3.1 to 4
TNSRHGETTV [FZD2, Q14332] was tested, and the pKd was “below the threshold”.
For ARESQKVSHV [FAM110B, Q8TC76], the pKd was “below the threshold”.

The binders below were run against T6, HTRA3, P83110 (assay: holdup assay). Details: plain residues with an end cap or a label only (N-terminal biotin on a linker: ado-ado).
Set-up: key: below the threshold = too weak to quantify, mostly under pKd 3.1 to 4
In the case of TNSRHGETTV [FZD2, Q14332], the pKd is reported as “below the threshold”.
For ARESQKVSHV [FAM110B, Q8TC76], the pKd was “below the threshold”.

Each binder was assayed against MAGI1_1, Q96QZ7 (assay: holdup assay). Details: plain residues with an end cap or a label only (N-terminal biotin on a linker: ado-ado).
Sequence of MAGI1_1, Q96QZ7 (Q96QZ7 1-106): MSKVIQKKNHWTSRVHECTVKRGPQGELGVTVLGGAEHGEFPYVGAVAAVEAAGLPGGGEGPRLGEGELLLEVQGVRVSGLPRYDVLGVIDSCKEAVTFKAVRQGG
Set-up: key: below the threshold = too weak to quantify, mostly under pKd 3.1 to 4
In the case of TNSRHGETTV [FZD2, Q14332], the pKd is reported as “below the threshold”.
With ARESQKVSHV [FAM110B, Q8TC76] the pKd was “below the threshold”.

What follows are binders tested against MAGI2_6, Q86UL8 (assay: holdup assay). Details: plain residues with an end cap or a label only (N-terminal biotin on a linker: ado-ado).
Sequence of MAGI2_6, Q86UL8 (Q86UL8 1141-1229): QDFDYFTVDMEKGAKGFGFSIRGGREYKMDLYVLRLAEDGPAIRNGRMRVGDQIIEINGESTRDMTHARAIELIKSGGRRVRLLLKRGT
Set-up: key: below the threshold = too weak to quantify, mostly under pKd 3.1 to 4
Work on TNSRHGETTV [FZD2, Q14332] yielded a pKd of 4.26.
Work on ARESQKVSHV [FAM110B, Q8TC76] yielded a pKd of 4.43.

What follows are binders tested against T7, MPP6, Q9NZW5 (assay: holdup assay). Details: plain residues with an end cap or a label only (N-terminal biotin on a linker: ado-ado).
Set-up: key: below the threshold = too weak to quantify, mostly under pKd 3.1 to 4
In the case of TNSRHGETTV [FZD2, Q14332], the pKd is reported as “below the threshold”.
ARESQKVSHV [FAM110B, Q8TC76] was tested, and the pKd was “below the threshold”.

Each binder was assayed against T8, MPP7, Q5T2T1 (assay: holdup assay). Details: plain residues with an end cap or a label only (N-terminal biotin on a linker: ado-ado).
Set-up: key: below the threshold = too weak to quantify, mostly under pKd 3.1 to 4
In the case of TNSRHGETTV [FZD2, Q14332], the pKd is reported as “below the threshold”.
ARESQKVSHV [FAM110B, Q8TC76] was tested, and the pKd was “below the threshold”.

The binders below were run against T9, NHERF3_4, Q5T2W1 (assay: holdup assay). Details: plain residues with an end cap or a label only (N-terminal biotin on a linker: ado-ado).
Set-up: key: below the threshold = too weak to quantify, mostly under pKd 3.1 to 4
For TNSRHGETTV [FZD2, Q14332], the pKd was “below the threshold”.
With ARESQKVSHV [FAM110B, Q8TC76] the pKd was “below the threshold”.

These binders were tested against T10, PDZD7_3, Q9H5P4 (assay: holdup assay). Details: plain residues with an end cap or a label only (N-terminal biotin on a linker: ado-ado).
Set-up: key: below the threshold = too weak to quantify, mostly under pKd 3.1 to 4
With TNSRHGETTV [FZD2, Q14332] the pKd was 4.26.
In the case of ARESQKVSHV [FAM110B, Q8TC76], the pKd is reported as 4.63.

What follows are binders tested against T11, RHPN1, Q8TCX5 (assay: holdup assay). Details: plain residues with an end cap or a label only (N-terminal biotin on a linker: ado-ado).
Set-up: key: below the threshold = too weak to quantify, mostly under pKd 3.1 to 4
TNSRHGETTV [FZD2, Q14332] was tested, and the pKd was 4.16.
ARESQKVSHV [FAM110B, Q8TC76] showed a pKd of 4.72.

What follows are binders tested against T12, SNTA1, Q13424 (assay: holdup assay). Details: plain residues with an end cap or a label only (N-terminal biotin on a linker: ado-ado).
Set-up: key: below the threshold = too weak to quantify, mostly under pKd 3.1 to 4
TNSRHGETTV [FZD2, Q14332] showed a pKd of 4.64.
For ARESQKVSHV [FAM110B, Q8TC76], the pKd was 4.25.

Each binder was assayed against T13, SNTG1, Q9NSN8 (assay: holdup assay). Details: plain residues with an end cap or a label only (N-terminal biotin on a linker: ado-ado).
Set-up: key: below the threshold = too weak to quantify, mostly under pKd 3.1 to 4
For TNSRHGETTV [FZD2, Q14332], the pKd was 4.27.
Binder ARESQKVSHV [FAM110B, Q8TC76] has a pKd of 4.34.

What follows are binders tested against TJP1_2, Q07157 (assay: holdup assay). Details: plain residues with an end cap or a label only (N-terminal biotin on a linker: ado-ado).
Sequence of TJP1_2, Q07157 (Q07157 181-274): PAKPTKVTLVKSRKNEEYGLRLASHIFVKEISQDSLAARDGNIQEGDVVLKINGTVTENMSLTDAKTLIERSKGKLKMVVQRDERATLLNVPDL
Set-up: key: below the threshold = too weak to quantify, mostly under pKd 3.1 to 4
With TNSRHGETTV [FZD2, Q14332] the pKd was “below the threshold”.
ARESQKVSHV [FAM110B, Q8TC76] was tested, and the pKd was “below the threshold”.

These binders were tested against T14, TJP3_3, O95049 (assay: holdup assay). Details: plain residues with an end cap or a label only (N-terminal biotin on a linker: ado-ado).
Set-up: key: below the threshold = too weak to quantify, mostly under pKd 3.1 to 4
In the case of TNSRHGETTV [FZD2, Q14332], the pKd is reported as “below the threshold”.
With ARESQKVSHV [FAM110B, Q8TC76] the pKd was “below the threshold”.

What follows are binders tested against T15, TX1BP3, O14907 (assay: holdup assay). Details: plain residues with an end cap or a label only (N-terminal biotin on a linker: ado-ado).
Set-up: key: below the threshold = too weak to quantify, mostly under pKd 3.1 to 4
TNSRHGETTV [FZD2, Q14332] gave a pKd of 3.68.
Binder ARESQKVSHV [FAM110B, Q8TC76] has a pKd of 4.9.
